Results published in patent publication US20190048062A1 (BRACCO SUISSE, published 2019).

Experiments:
Assay in all cases: flow chamber, microvesicles on selectin-Fc coating
[1] = biological target: T1, human Fc P selectin (R&D catalog number 137-PS 50) (human, UniProt P16109 42-771)
T1 construct: Bought; coated in the flow chamber at 4 µg/mL; also called Human P selectin; human P-selectin; Fc part of the bought chimera not given
T1 sequence (looked up): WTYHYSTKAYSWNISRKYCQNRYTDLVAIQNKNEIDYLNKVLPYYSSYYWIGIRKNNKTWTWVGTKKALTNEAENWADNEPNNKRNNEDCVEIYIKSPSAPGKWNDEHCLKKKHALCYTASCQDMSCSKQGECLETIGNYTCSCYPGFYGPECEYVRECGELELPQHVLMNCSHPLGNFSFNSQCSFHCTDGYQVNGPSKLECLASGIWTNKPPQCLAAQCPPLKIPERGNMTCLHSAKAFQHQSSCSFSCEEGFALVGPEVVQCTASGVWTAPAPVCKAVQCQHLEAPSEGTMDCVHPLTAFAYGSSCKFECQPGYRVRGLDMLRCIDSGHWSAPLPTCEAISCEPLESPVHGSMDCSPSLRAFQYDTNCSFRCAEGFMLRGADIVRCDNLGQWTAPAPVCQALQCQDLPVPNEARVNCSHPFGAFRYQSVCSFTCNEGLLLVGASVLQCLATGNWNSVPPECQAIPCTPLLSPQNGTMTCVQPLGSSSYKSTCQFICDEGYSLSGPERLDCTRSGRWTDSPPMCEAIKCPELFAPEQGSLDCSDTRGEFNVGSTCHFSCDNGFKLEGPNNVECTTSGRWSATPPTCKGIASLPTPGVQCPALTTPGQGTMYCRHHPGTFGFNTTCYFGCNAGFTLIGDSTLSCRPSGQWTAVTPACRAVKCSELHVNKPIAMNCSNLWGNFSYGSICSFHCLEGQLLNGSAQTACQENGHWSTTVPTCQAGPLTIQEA
Description: (§1) To test the effective binding, targeted microvesicles prepared as described in WO2012/020030 (Example 6) and those prepared according to the present invention (example 8) were injected in a flow chamber set up comprising a coating of mouse Fc P-Selectin (catalog number 737-PS, R&D Systems, Minneapolis, Minn., USA) or human Fc P and E selectins (R&D catalog numbers 137-PS 50 and 724 ES 100) at 4 μg/mL. Microvesicles (at equivalent number of 80×10⁶/400 μL TBS++) were injected through the flow chamber (FCS2, Bioptech, USA) in a bolus fashion and their adhesion onto the mouse P-selectin (or human P- or E-selectin) coating layer assessed over a period of 10 min at a flow rate of 1.0 mL/min (shear rate of 714 s⁻¹) in the presence of 50% (v:v) human plasma (Stehelin & Cie A G) in TBS. A quantitative analysis of microvesicles accumulation was performed by counting the number of microvesicles adhering in the observed area at 2 min intervals over the total 10 min infusion, using the image processing program Analysis FIVE (SIS, Germany). After 10 min, five pictures were taken randomly and the number of bound microvesicles was measured and expressed as the number of bound bubbles (NBB) at 10 min. Each observed area was 183×137 μm, as measured with the aid of a stage micrometer. Measurement was performed between the middle and the exit of the chamber.
(§2) Similarly, suspensions of targeted microvesicles prepared according to example 8 (Variant 1A as targeting ligand) was injected in a flow chamber as described above, and their binding activity determined according to the above procedure.

[2] = biological target: T2, human Fc E selectin (R&D catalog number 724 ES 100) (human, UniProt P16581 22-556)
T2 construct: Bought; coated in the flow chamber at 4 µg/mL; also called Human E selectin; human E-selectin; Fc part of the bought chimera not given
T2 sequence (looked up): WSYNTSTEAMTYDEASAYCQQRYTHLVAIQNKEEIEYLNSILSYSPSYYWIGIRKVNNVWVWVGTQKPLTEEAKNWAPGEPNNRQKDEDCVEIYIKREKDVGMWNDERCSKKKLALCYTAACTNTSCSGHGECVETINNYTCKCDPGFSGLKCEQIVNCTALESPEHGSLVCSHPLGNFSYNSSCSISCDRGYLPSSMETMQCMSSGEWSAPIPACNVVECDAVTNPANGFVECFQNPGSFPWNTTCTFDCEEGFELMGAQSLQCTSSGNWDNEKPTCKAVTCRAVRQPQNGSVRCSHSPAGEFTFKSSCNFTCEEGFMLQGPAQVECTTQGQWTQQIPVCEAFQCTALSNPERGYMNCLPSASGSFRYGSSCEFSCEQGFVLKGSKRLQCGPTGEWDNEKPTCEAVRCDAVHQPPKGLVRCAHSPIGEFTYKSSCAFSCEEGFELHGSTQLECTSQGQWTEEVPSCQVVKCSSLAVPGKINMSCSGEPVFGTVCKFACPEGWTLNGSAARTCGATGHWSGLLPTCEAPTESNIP
Description: as §1, §2

[3] = biological target: T3, mouse Fc P-Selectin (catalog number 737-PS, R&D Systems) (mouse, UniProt Q01102 42-709)
T3 construct: Bought; coated in the flow chamber at 4 µg/mL; also called Mouse P selectin; mouse P-selectin; Fc part of the bought chimera not given
T3 sequence (looked up): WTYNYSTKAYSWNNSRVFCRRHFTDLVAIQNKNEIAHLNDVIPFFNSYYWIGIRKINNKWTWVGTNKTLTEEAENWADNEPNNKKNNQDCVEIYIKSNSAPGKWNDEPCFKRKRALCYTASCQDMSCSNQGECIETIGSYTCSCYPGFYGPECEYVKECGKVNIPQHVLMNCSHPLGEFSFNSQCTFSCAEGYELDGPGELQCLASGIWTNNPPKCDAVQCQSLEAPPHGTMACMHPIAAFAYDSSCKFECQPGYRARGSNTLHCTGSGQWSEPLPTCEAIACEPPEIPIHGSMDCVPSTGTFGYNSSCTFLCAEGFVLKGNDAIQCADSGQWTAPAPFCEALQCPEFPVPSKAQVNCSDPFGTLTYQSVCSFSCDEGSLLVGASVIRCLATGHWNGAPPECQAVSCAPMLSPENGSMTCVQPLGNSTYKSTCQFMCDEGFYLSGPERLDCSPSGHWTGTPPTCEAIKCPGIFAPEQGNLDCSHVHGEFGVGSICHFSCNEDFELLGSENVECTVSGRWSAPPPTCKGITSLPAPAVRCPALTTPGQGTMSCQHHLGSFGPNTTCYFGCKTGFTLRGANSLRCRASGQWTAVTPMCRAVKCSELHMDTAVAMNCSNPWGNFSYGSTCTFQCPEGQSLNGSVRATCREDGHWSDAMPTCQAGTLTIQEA
Description: as §1, §2

- binding result [1]: binds
- binding result [2]: binds
- binding result [3]: binds
B1: microbubble Variant 1A (gas-filled microvesicles carrying the DSPE-PEG-SH/Variant 1A-SMCC conjugate) (other)
chain: QATEYEYLDYDFLPETEPPEMLRNSTDTTPLTGPGTPESTTVEPAARPHTCPPCPLQQRRGLEAERARLAAQLDALRAEVARLARERDLYGGGGAGGGGKG
modifications: as Variant 1A (pyroglutamate N-terminus, sulfated Tyr 5, 7, 10, O-glycan on Thr16); reacted with Sulfo-SMCC and linked to DSPE-PEG2000-SH, held in the phospholipid envelope of the microvesicle
notes: many copies of the ligand on each microvesicle, so the read-out is multivalent adhesion; also called MB-PSGL-1 Variant 1A; microvesicles with Variant 1A
